Measured values taken from US20260184777A1 (BEIJING SUNGEN BIOMEDICAL TECHNOLOGY, published 2026).
Numbering of substitutions follows the chain as printed.

B1: Anti-S100A8/A9 monoclonal antibody (antibody, human IgG4 S228P, lambda, V domains shown)
VH: not shown
VL: SYELTQPPSVSVAPGQTARITCSGDALGDKYASWYQQKPGQAPVLVIYEDSKRPSGIPERFSGSNSGNTATLTISGTQAEDEADYYCQSNDADSVWVFGGGTKLTVLG
notes: also called CM-1; parental antibody
B2: CM-30 (antibody, human IgG4 S228P, lambda, V domains shown)
VH: not shown
VL: B1 VL with S51A
B3: CM-33 (antibody, human IgG4 S228P, lambda, V domains shown)
VH: not shown
VL: B1 VL with K52R
B4: CM-12 (antibody, human IgG4 S228P, lambda, V domains shown)
VH: not shown
VL: B1 VL
B5: CM-26 (antibody, human IgG4 S228P, lambda, V domains shown)
VH: not shown
VL: B1 VL with Y31F
B6: CM-5 (antibody, human IgG4 S228P, lambda, V domains shown)
VH: not shown
VL: B1 VL
B7: CM-3 (antibody, human IgG4 S228P, lambda, V domains shown)
VH: not shown
VL: B1 VL
B8: CM-34 (antibody, human IgG4 S228P, lambda, V domains shown)
VH: not shown
VL: B1 VL with K52P
B9: CM-23 (antibody, human IgG4 S228P, lambda, V domains shown)
VH: not shown
VL: B1 VL
B10: CM-28 (antibody, human IgG4 S228P, lambda, V domains shown)
VH: not shown
VL: B1 VL with D50H
B11: CM-10 (antibody, human IgG4 S228P, lambda, V domains shown)
VH: not shown
VL: B1 VL
B12: CM-2 (antibody, human IgG4 S228P, lambda, V domains shown)
VH: not shown
VL: B1 VL
B13: CM-38 (antibody, human IgG4 S228P, lambda, V domains shown)
VH: not shown
VL: B1 VL with A92I
B14: CM-11 (antibody, human IgG4 S228P, lambda, V domains shown)
VH: not shown
VL: B1 VL
B15: CM-20 (antibody, human IgG4 S228P, lambda, V domains shown)
VH: not shown
VL: B1 VL
B16: CM-14 (antibody, human IgG4 S228P, lambda, V domains shown)
VH: not shown
VL: B1 VL
B17: CM-4 (antibody, human IgG4 S228P, lambda, V domains shown)
VH: not shown
VL: B1 VL
B18: CM-8 (antibody, human IgG4 S228P, lambda, V domains shown)
VH: not shown
VL: B1 VL
B19: CM-19 (antibody, human IgG4 S228P, lambda, V domains shown)
VH: not shown
VL: B1 VL
B20: CM-16 (antibody, human IgG4 S228P, lambda, V domains shown)
VH: not shown
VL: B1 VL
B21: CM-6 (antibody, human IgG4 S228P, lambda, V domains shown)
VH: not shown
VL: B1 VL
B22: CM-9 (antibody, human IgG4 S228P, lambda, V domains shown)
VH: not shown
VL: B1 VL
B23: CM-37 (antibody, human IgG4 S228P, lambda, V domains shown)
VH: not shown
VL: B1 VL with A92L
B24: CM-18 (antibody, human IgG4 S228P, lambda, V domains shown)
VH: not shown
VL: B1 VL
B25: CM-35 (antibody, human IgG4 S228P, lambda, V domains shown)
VH: not shown
VL: B1 VL with Q88D
B26: CM-21 (antibody, human IgG4 S228P, lambda, V domains shown)
VH: not shown
VL: B1 VL
B27: CM-32 (antibody, human IgG4 S228P, lambda, V domains shown)
VH: not shown
VL: B1 VL with K52H
B28: CM-22 (antibody, human IgG4 S228P, lambda, V domains shown)
VH: not shown
VL: B1 VL
B29: CM-25 (antibody, human IgG4 S228P, lambda, V domains shown)
VH: not shown
VL: B1 VL
B30: CM-7 (antibody, human IgG4 S228P, lambda, V domains shown)
VH: not shown
VL: B1 VL
B31: CM-36 (antibody, human IgG4 S228P, lambda, V domains shown)
VH: not shown
VL: B1 VL with A92V
B32: CM-15 (antibody, human IgG4 S228P, lambda, V domains shown)
VH: not shown
VL: B1 VL
B33: CM-31 (antibody, human IgG4 S228P, lambda, V domains shown)
VH: not shown
VL: B1 VL with S51H
B34: CM-27 (antibody, human IgG4 S228P, lambda, V domains shown)
VH: not shown
VL: B1 VL with E49Q
B35: CM-24 (antibody, human IgG4 S228P, lambda, V domains shown)
VH: not shown
VL: B1 VL
B36: CM-17 (antibody, human IgG4 S228P, lambda, V domains shown)
VH: not shown
VL: B1 VL
B37: CM-29 (antibody, human IgG4 S228P, lambda, V domains shown)
VH: not shown
VL: B1 VL with D50Q
B38: CM-13 (antibody, human IgG4 S228P, lambda, V domains shown)
VH: not shown
VL: B1 VL
B39: CM-39 (antibody, human IgG4 S228P, lambda, V domains shown)
VH: not shown
VL: B1 VL with S94A

The binders below were run against monkey S100A8/A9 heterodimeric antigen (cS100A8/A9) (monkey) (assay: not given).

Binder | Kd
B1 | 22.8 nM

These binders were tested against T1, human S100A8/A9 heterodimeric antigen, His-tagged (hS100A8/A9-His) (human, UniProt P05109 1-93; P06702 1-114) (assay: not given).
T1 sequence 1: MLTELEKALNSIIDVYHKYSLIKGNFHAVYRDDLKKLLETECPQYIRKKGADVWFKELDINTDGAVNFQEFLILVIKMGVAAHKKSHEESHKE
T1 sequence 2: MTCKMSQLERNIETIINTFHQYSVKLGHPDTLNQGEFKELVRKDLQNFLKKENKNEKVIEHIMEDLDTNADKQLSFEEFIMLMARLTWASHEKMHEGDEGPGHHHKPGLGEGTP

Binder | Kd
B1 | 8.95 nM

The binders below were run against T1, human S100A8/A9 heterodimeric antigen, … (assay: cell-based or functional assay).

Binder | IC50, inhibition of IL-6 release from hS100A8/A9-activated human PBMCs
B2 | 0.434 µg/mL
B3 | 0.452 µg/mL
B4 | 0.047 µg/mL
B5 | 0.168 µg/mL
B6 | 0.436 µg/mL
B7 | 0.029 µg/mL
B8 | 1.22 µg/mL
B9 | 0.024 µg/mL
B10 | 1.74 µg/mL
B11 | 0.438 µg/mL
B12 | 0.199 µg/mL
B13 | 0.084 µg/mL
B14 | 0.038 µg/mL
B15 | 0.43 µg/mL
B16 | 2.79 µg/mL
B17 | 0.04 µg/mL
B18 | 0.458 µg/mL
B19 | 0.619 µg/mL
B20 | 0.457 µg/mL

Binder | IC50, inhibition of IL-6 release from hS100A8/A9-activated human PBMCs
B21 | 0.488 µg/mL
B22 | 1.56 µg/mL
B23 | 0.335 µg/mL
B24 | 0.109 µg/mL
B25 | 0.655 µg/mL
B26 | 0.01 µg/mL
B27 | 0.536 µg/mL
B28 | 0.162 µg/mL
B29 | 0.471 µg/mL
B30 | 0.12 µg/mL
B31 | 0.393 µg/mL
B32 | 0.477 µg/mL
B33 | 0.48 µg/mL
B34 | 0.253 µg/mL
B35 | 0.67 µg/mL
B36 | 0.32 µg/mL
B37 | 2 µg/mL
B38 | 0.047 µg/mL
B39 | 0.452 µg/mL

These binders were tested against plague (UniProt P26948 22-170) (assay: not given).

Binder | binding result
B1 | no binding (tested: 20 µg/mL)

These binders were tested against T2, S100A1 (human, UniProt P23297 1-94) (assay: not given).
T2 sequence (looked up): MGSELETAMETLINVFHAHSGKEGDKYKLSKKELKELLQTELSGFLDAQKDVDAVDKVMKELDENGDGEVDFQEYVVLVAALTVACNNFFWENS

Binder | binding result
B1 | no binding (tested: 20 µg/mL)
